Test system: MS2 coat protein
Assay: apparent KD of MS2 coat protein; designed switch direction (-1 OFF switch, 1 ON switch): -1; higher = weaker reporter binding
In short: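 For each design, the apparent KD is the median over clusters of curves fitted to normalised cluster fluorescence. Clusters held RNA switches with common flanks, transcribed on Illumina chips by stalled E. coli RNA polymerase. These were titrated with SNAP-549-labelled MS2 coat protein, doubling from 0.7 or 1.5 nM to 3 µM, without input, with 200 uM small-molecule ligand, or with an oligonucleotide input.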

[1] = Eterna round: R95, input ligand: microRNA oligo, concentration not stated
[2] = Eterna round: R95, input ligand: FMN 200 uM
[3] = Eterna round: R95, input ligand: none
[4] = input ligand: microRNA oligo, concentration not stated

Row | Sequence | apparent KD of MS2 coat protein [1] [nM] | apparent KD of MS2 coat protein (input ligand: FMN 200 uM) [nM] | apparent KD of MS2 coat protein (input ligand: none) [nM] | apparent KD of MS2 coat protein [2] [nM] | apparent KD of MS2 coat protein [3] [nM] | apparent KD of MS2 coat protein [4] [nM]
1 | GAAAACCAAGGAUAUACAUGAGGAUCACCCAUGUAGGUUGGGACGCCAUAAAGGCGAUGUAGAAGGUGGGAAAA [Inansoge] (puzzle: Exclusion 3) | 21.6 |  |  |  |  | 
2 | GAAAACGAAGAGGAUAUUUGAUAUCAAAGCUUCAAAGAAGGCUUCACAUGAGGAUCACCCAUGUGAUCUUCAAU [Mat - Exclusion 6 - JL Mod - D15] (Eterna round: R97, puzzle: Exclusion 6) |  | 212 | 24.5 |  |  | 
3 | GAAAACGCAGAGGAUAUUUCAGAUCCUAGCUGCAAAGAAGGCUGCACAUGAGGAUCACCCAUGUGGUCCUGAAA [Quesina mod] (Eterna round: R97, puzzle: Exclusion 6) |  | 116 | 38.6 |  |  | 
4 | GAAAACGUAGGAUAUUAAUACUUAGACAUGAGGAUCACCCAUGUUUGGUGGGUCGGAGAAUGAGAAGGGCGAUGAA [EX5 #13] (Eterna round: R97, puzzle: Exclusion 5) |  | 107 | 153 |  |  | 
5 | GAAAAGAAAGGAUAUACAGGGAAAUGAACCGCACGUAAACCACAUGAGGAUCACCCAUGUAGAAGGUUCAGUGC [Edenusra] (puzzle: Exclusion 2) | 10.6 |  |  |  |  | 
6 | GAAAAGGUAGGAUAUACGAAAAAAAAGGCUAGAAAAAAAACACAUGAGGAUCACCCAUGUAGAAGGACCAAAAG [salish99_ex2_r3_068] (puzzle: Exclusion 2) | 28.8 |  |  | 28.7 | 24 | 
7 | GAAAAGGUAGGAUAUACGAAAAAAAAGGGCAGAAAAAAAACACAUGAGGAUCACCCAUGUAGAAGGACCAAAAG [salish99_ex2_r3_065] (puzzle: Exclusion 2) | 24.3 |  |  | 26.6 | 23.2 | 
8 | GAAAAGGUAGGAUAUACGAAAAAAAAGGGUACAAAAAAAACACAUGAGGAUCACCCAUGUAGAAGGACCAAAAG [salish99_ex2_r3_063] (puzzle: Exclusion 2) | 25.6 |  |  | 36.8 | 20.8 | 
9 | GAAAAGGUAGGAUAUACGAAAAAAAAGGGUAGAAAAAAGACACAUGAGGAUCACCCAUGUAGAAGGACCAAAAG [salish99_ex2_r3_019] (puzzle: Exclusion 2) | 21.7 |  |  | 62.5 | 30.3 | 
10 | GAAAAGGUAGGAUAUACGAAAAAAAAGGGUAGAAGAAAAACACAUGAGGAUCACCCAUGUAGAAGGACCAAAAG [salish99_ex2_r3_022] (puzzle: Exclusion 2) | 18.6 |  |  | 107 | 23.5 | 
11 | GAAAAGGUAGGAUAUACGAAAAAAAAGGGUAGAGAAAAAACACAUGAGGAUCACCCAUGUAGAAGGACCAAAAG [salish99_ex2_r3_023] (puzzle: Exclusion 2) | 27.1 |  |  | 84.8 | 26.7 | 
12 | GAAAAGGUAGGAUAUACGAAAAGAAAGGGUAGAAAAAAAACACAUGAGGAUCACCCAUGUAGAAGGACCAAAAG [salish99_ex2_r3_027] (puzzle: Exclusion 2) | 26.9 |  |  | 58.7 | 25 | 
13 | GAAAAGGUAGGAUAUACGGAAAAAAAGGGUAGAAAAAAAACACAUGAGGAUCACCCAUGUAGAAGGACCAAAAG [salish99_ex2_r3_030] (puzzle: Exclusion 2) | 32.5 |  |  | 60.9 | 27.4 | 
14 | GAAAAGGUAGGAUAUACGUAAAAAAAGGGUAGAAAAAAAACACAUGAGGAUCACCCAUGUAGAAGGACCAAAAG [salish99_ex2_r3_087] (puzzle: Exclusion 2) | 24.7 |  |  | 88.3 | 20.6 | 
15 | GAAAAUCGUAAGGAUAUCAGCGAAGAAGUACACUGAGAAGGUAUGACAUGAGGAUCACCCAUGUAGCCCGCUUA [Eternabot (L1) Solution 38] (Eterna round: R97, puzzle: Exclusion 6) |  | 18 | 13.2 |  |  | 
16 | GAAAAUUGAGGAUAUCCAAAAGGCCACAUGAGGAUCACCCAUGUGUAUCCUCGGCCCAAAGGAGAAGGCAAGAUAA [EX5 A.23] (Eterna round: R97, puzzle: Exclusion 5) |  | 974 | 5080 |  |  | 
17 | GAACCAUGAGGAUAUUCUGAUCCUAACAUGAGGAUCACCCAUGUGAGUACAAAAGUACUCGAAGAAGGCAUGGUUC [Omei Ex5 B2] (Eterna round: R97, puzzle: Exclusion 5) |  | 819 | 428 |  |  | 
18 | GAACCUUGAGGAUAUACAUAACAACAAAGCCUCACGUGCCAACAUGAGGAUCACCCAUGUAGAAGGCAAGCCAA [Mod R3 Insanara 9 - Jieux - Exclusion 2] (Eterna round: R97, puzzle: Exclusion 2) |  | 19 | 16.2 |  |  | 

Row | Sequence | apparent KD of MS2 coat protein [1] [nM] | apparent KD of MS2 coat protein (input ligand: FMN 200 uM) [nM] | apparent KD of MS2 coat protein (input ligand: none) [nM] | apparent KD of MS2 coat protein [2] [nM] | apparent KD of MS2 coat protein [3] [nM] | apparent KD of MS2 coat protein [4] [nM]
19 | GAAUAGCGAGGAUAUGCAAUGAAGGUAGUACGAUAUGGCUGACAUGAGGAUCACCCAUGUAGAAGGCGCUGAUC [EX2 #11] (Eterna round: R97, puzzle: Exclusion 2) |  | 116 | 65.8 |  |  | 
20 | GAAUAGGCAGGAUAUACAUGAGGAUCACCCAUGUGCAAGCGAAAGGUACGUGAACAACGUAGAAGGGCCUAAAC [ChP 13.04.2015 #10] (puzzle: Exclusion 3) | 12.9 |  |  | 24.3 | 13.8 | 
21 | GACAGGGCAGGAUAUCGAGAUCCUCACAUGAGGAUCACCCAUGUUCAGUCGAAAGACUGACGAGAAGGGCCGUGUC [Omei Ex5 E3] (Eterna round: R97, puzzle: Exclusion 5) |  | 36.8 | 33.2 |  |  | 
22 | GACCCUAGGGUCAGACGCACAAGCUUUUUGCUCGUUUUAACAUGAGGAUCACCCAUGUCUAGUGGAUCUGAUCGGGC [Ongege] (puzzle: Sensor v3, turn-off variant 2) | 151 |  |  | 26.3 | 29.5 | 
23 | GACUGAACGUGGUCUGGUUACAUGAGGAUCACCCAUGUAGGUCUAAGAACAUGUCUUUUGUACGCUCGUCUUAUAUA [JR_SV3TOV1_Sub066] (puzzle: Sensor v3, turn-off variant 1) | 38.1 |  |  | 16.7 | 15 | 
24 | GACUGAGCAGGAUAUACAUGAGGAUCACCCAUGUUGGUUCAGCGACGAUAGUCGCAAUGUAGAAGGGCUCAGUC [E3/9-D2] (Eterna round: R97, puzzle: Exclusion 3) |  | 273 | 203 |  |  | 
25 | GACUGGACAGGAUAUGUUCUUGAGCACUUGAGGAUCACCCAAGUCAUCAAGAACUCAGGCACAGAAGGGUUUAUGA [salish99_ex5_r4_008] (Eterna round: R97, puzzle: Exclusion 5) |  | 29.6 | 13.5 |  |  | 
26 | GACUUCUCUGAGGAUAUUGCAUCAUACGAUCUAUAAGAAGGCAGAACAUGAGGAUCACCCAUGUGGGUUUCUAG [Bingo-Bango-28] (Eterna round: R97, puzzle: Exclusion 6) |  | 70.2 | 38.3 |  |  | 
27 | GAGAAGGUAGGAUAUACGAAUAAAUAGGGUAGUAAUAAGACACAUGAGGAUCACCCAUGUAGAAGGACCAAGAG [Mat - Exclusion 2 - Mod of my Tesla design - D38] (puzzle: Exclusion 2) | 19.3 |  |  | 37 | 21.1 | 
28 | GAGACAUGAGGAUCACCCAUGUGUGGUCCAAGGCAUGUCGUCGAGGAUAUGCAGGACGUCGUCUUGCAGAAGGCGACUAAAUAC [Teatarti] (Eterna round: R96, puzzle: Exclusion NG 3) |  | 17.8 | 105 |  |  | 19.5
29 | GAGAUGCGGAUAGGAUAUGGAAGAAAAGAAGGAUUAGAAGGGUUGGUUAGAAUACAUGAGGAUCACCCAUGUGAAUCAUGAGAA [AK ExNG1-2.3] (Eterna round: R96, puzzle: Exclusion NG 1) |  | 99.2 | 128 |  |  | 81.1
30 | GAGAUGUGAGGAUAUCUAGACCGCGGAAGAGCCGCAGUCCGAGAGAAGGCACAUGAGGAUCACCCAUGUGAUGA [Teorgeor] (puzzle: Exclusion 4) | 36 |  |  |  |  | 
31 | GAGCAGCGAGGAUAUACAGACGGGUCCAGUACGUGUCUUGGACUUGAGGAUCACCCAAGUAGAAGGCGCCACAG [salish99_ex2_r4_605] (Eterna round: R97, puzzle: Exclusion 2) |  | 42.6 | 25.8 |  |  | 
32 | GAGGAACAUGAGGAUCACCCAUGUGAGGAUAUGCAUAGUGAGCUAGUAGACGUUUAUUGCAGAAGGUACACUGA [JR_Exclu1_Sub080] (puzzle: Exclusion 1) | 25.3 |  |  |  |  | 
33 | GAGGAGCAAGGAUAUACGAGGAUAGGGAAGGUUGGAGAGUGACAUGAGGAUCACCCAUGUAGAAGGUGCAAGGG [JR_Exclu2_Sub095] (puzzle: Exclusion 2) | 108 |  |  |  |  | 
34 | GAGUACUGAGGAUAUACAUGAGGAUCACCCAUGUGUUCCAACUAGGAAUCUAGAAUAUGUAGAAGGCAGUGCUG [salish99_ex3_r4_702] (Eterna round: R97, puzzle: Exclusion 3) |  | 71.3 | 123 |  |  | 
35 | GAGUAGUAAGGAUAUAGUAGGAGGGAGAAGUGAGGAGAGAACUAGAAGGUACAUGAGGAUCACCCAUGUUGAGA [JR_Exclu4_Sub084] (puzzle: Exclusion 4) | 19.2 |  |  | 24.3 | 19.5 | 
36 | GAGUCUCGAAAGGAUAUUUAGGUGUAUGCAGGUAGAGAAGGUUCGACAUGAGGAUCACCCAUGUAAUGGUUUCC [Eternabot (L2) Solution 25] (Eterna round: R97, puzzle: Exclusion 6) |  | 157 | 84 |  |  | 

— the supplement of paper PMC9170038
